Assay results: patent US8889827B2, “Opiorphin peptide derivatives as potent inhibitors of enkephalin-degrading ectopeptidases” (Institut Pasteur, priority 2008, dated 2014)
Non-standard residues stand in square brackets, D forms with d. No end group written: not given here.

Columns and labels:
Type in all cases: biochemical
human NEP = target: T1, human NEP (Homo sapiens, UniProt P08473); test: Screening of opiorphin peptide-derivatives on hNEP (endopeptidase and carboxydipeptidase activities); conditions: for inhibitory potency towards human NEP (in words): screening, 50 μM final concentration, triplicate
T1 construct: devoid of their respective N-terminal cytosol and transmembrane segment; purchased R&D Systems
Method: (§1) According to conditions of initial velocity measurement: the time, pH and temperature of incubation as well as enzyme and substrate concentrations were defined for each assay. Hydrolysis of substrates was measured by real-time monitoring their metabolism rate by the two peptidases in the presence and absence of tested inhibitory compound (concentrations ranging from 1 to 50 μM). These were added to the preincubation medium. The background rate of substrate autolysis representing the fluorescent signal obtained in the absence of enzyme was subtracted to calculate the initial velocities in RFU (Relative Fluorescent Unit)/min.
(§2) (2.3 min-interval successive measures) by using a fluorimeter microplate reader (monochromator Infinite 200-Tecan) at 320 nm and 420 nm excitation and emission wavelengths, respectively.
Using black half-area 96 well microplate, the standard reaction consisted of enzyme (2.5 ng) in 100 mM Tris-HCl pH 6.5 containing 50 mM NaCl (100 μl final volume). The substrate (4 μM final concentration) was added after preincubation for 10 min and the kinetics of appearance of the fluorescent signal (RFU) was directly analyzed for 40 min at 28° C. (2.3 min-interval successive measures) by using the fluorimeter reader at 320 nm excitation and 420 nm emission wavelengths.
In addition, the intramolecularly quenched fluorogenic peptide, Mca-BK2 (10 μM), was submitted to hydrolysis by 5 ng rhNEP under the same experimental conditions as those described behind.
(§3) Compounds were tested in triplicate at 50 μM final concentration.

[1] = target: T2, membrane-bound human NEP expressed by LNCaP epithelial cells (Homo sapiens, UniProt P08473); test: Substance P cleavage by membrane-bound hNEP of human cell membranes; conditions: increase vs Opiorphin native peptide in the same test
T2 construct: human cell membranes as source of hNEP; endogenous in cells; host or cells: LNCaP epithelial cells (membranes)

[2] = target: T3, recombinant human NEP (rhNEP-Endopeptidase activity) (Homo sapiens, UniProt P08473); test: NEP-endopeptidase activity, FRET substrate Abz-dR-G-L-EDDnp; conditions: screening at 50 μM and IC50 comparison, NEP endopeptidase versus AP-N
T3 construct: devoid of their respective N-terminal cytosol and transmembrane segment; purchased R&D Systems
Method: (§4) Formal kinetic analysis was performed for each assay using real-time fluorescence monitoring of specific substrate hydrolysis.
(§5) Recombinant human NEP and recombinant human AP-N (devoid of their respective N-terminal cytosol and transmembrane segment) that were purchased from R&D Systems, were used as pure source of peptidase.
as §1, §2

recombinant human AP-N = target: T4, recombinant human AP-N (Homo sapiens, UniProt P15144); test: AP-N-ectopeptidase activity, Ala-Mca substrate; conditions: for inhibitory potency towards human AP-N (in words): screening, 50 μM final concentration, triplicate; for inhibitory preference for human AP-N (in words): screening at 50 μM, AP-N versus NEP
T4 construct: devoid of their respective N-terminal cytosol and transmembrane segment; purchased R&D Systems
Method: as §4, §5
FRET is the distance-dependant transfer of energy from a donor fluorophore (Abz=ortho-aminobenzoyl or Mca=7-methoxycoumarin-4-yl-acetyl) to an acceptor fluorophore (DnpOH=2,4-dinitrophenyl or EDDnp=2,4-dinitrophenyl ethylenediamine). • L-alanine-Mca, Ala-Mca, a fluorogenic substrate for measuring aminopeptidase activity was purchased from Sigma.
as §1
Measurement of AP-N-ectopeptidase activity using Ala-Mca substrate. Using black half-area 96 well microplate the standard reaction consisted of enzyme (4 ng) in 100 mM Tris-HCl pH 7.0 (100 μl final volume).
as §3

T1 sequence (P08473 52-750 limits assumed): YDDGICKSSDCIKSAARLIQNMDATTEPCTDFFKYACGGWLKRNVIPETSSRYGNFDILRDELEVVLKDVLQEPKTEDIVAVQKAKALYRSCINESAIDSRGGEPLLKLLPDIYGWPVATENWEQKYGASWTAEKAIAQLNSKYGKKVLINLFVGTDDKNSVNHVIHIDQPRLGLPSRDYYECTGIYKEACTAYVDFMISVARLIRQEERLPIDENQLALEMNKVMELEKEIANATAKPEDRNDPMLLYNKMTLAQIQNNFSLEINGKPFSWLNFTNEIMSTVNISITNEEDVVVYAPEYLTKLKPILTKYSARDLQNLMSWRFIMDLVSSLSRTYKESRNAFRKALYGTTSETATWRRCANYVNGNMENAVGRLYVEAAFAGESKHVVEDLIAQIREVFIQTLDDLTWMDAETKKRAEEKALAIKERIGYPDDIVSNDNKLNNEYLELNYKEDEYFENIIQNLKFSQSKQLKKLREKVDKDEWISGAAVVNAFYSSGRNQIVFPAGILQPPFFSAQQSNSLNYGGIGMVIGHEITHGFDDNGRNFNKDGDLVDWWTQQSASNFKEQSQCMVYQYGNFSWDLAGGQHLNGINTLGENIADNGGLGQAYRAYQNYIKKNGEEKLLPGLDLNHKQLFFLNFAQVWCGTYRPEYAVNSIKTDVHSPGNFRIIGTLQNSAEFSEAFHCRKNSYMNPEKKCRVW
T4 sequence (P15144 33-967 limits assumed): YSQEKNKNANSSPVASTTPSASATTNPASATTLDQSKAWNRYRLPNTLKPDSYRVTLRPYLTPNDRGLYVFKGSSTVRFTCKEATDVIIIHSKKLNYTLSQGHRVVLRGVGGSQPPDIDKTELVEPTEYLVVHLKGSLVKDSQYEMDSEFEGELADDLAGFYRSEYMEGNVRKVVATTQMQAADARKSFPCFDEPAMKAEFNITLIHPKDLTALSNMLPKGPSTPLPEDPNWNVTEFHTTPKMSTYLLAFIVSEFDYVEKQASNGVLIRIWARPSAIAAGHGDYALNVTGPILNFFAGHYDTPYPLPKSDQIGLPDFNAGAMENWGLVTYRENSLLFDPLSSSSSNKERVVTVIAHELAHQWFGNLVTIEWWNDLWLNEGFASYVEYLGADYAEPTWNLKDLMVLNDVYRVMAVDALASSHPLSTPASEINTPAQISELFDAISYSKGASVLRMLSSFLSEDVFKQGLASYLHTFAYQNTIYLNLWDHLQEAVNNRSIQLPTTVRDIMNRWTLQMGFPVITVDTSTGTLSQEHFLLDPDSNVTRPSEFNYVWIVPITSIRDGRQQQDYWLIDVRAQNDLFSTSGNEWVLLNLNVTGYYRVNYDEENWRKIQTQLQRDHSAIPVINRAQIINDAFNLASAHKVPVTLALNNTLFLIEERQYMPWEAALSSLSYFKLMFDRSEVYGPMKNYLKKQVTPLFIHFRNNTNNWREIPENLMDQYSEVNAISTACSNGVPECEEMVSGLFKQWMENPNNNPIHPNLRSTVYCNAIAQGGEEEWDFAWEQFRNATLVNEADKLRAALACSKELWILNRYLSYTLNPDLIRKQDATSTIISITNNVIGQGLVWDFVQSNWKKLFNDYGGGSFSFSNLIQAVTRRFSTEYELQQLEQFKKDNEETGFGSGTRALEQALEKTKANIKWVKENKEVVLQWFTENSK
T3 sequence (P08473 52-750 limits assumed): as the sequence (P08473 52-750 limits assumed) above
T2 sequence (P08473 whole entry): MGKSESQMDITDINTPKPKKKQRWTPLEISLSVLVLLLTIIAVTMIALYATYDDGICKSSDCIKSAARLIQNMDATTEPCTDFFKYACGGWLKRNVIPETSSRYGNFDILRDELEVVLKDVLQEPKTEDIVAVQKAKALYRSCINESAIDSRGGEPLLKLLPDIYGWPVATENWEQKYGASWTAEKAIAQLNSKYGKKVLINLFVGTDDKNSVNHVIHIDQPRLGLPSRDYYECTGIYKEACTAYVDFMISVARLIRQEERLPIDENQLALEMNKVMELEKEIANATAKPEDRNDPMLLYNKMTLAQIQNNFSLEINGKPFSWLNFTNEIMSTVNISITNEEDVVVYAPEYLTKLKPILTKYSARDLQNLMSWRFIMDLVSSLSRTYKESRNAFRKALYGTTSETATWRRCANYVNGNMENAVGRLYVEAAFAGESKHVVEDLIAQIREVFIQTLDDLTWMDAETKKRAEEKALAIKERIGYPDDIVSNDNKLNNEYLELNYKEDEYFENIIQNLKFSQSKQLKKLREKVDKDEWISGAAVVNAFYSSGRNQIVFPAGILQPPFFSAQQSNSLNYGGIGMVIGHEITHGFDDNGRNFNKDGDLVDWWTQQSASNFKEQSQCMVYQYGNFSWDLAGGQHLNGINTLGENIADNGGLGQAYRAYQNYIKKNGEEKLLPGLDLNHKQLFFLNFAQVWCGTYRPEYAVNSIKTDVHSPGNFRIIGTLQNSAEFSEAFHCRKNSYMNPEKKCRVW

Compound	inhibitory potency towards human NEP (in words) (human NEP)	inhibitory potency towards hAP-N compared to Opiorphin-QRFSR native peptide (in words) (recombinant human AP-N)	inhibitory preference for human AP-N (in words) (recombinant human AP-N)	inhibitory potency towards hNEP compared to Opiorphin-QRFSR native peptide (in words) (human NEP)	other results
N=C(N)NCCC[C@H](NC(=O)[C@H](CO)NC(=O)[C@H](Cc1ccccc1)NC(=O)[C@H](CCCNC(=N)N)NC(=O)[C@H](CCC(N)=O)NC(=O)[C@@H](N)CS)C(=O)O [CQRFSR-COOH, CQRFSR]	potent dual inhibitors	–	–	–	reinforced inhibitory potency towards hNEP compared to QRFSR native peptide (human NEP; increase vs QRFSR native peptide): 5 fold
CCCCCCCC(=O)OC[C@H](NC(=O)[C@H](Cc1ccccc1)NC(=O)[C@H](CCCNC(=N)N)NC(=O)[C@H](CCC(N)=O)NC(=O)CCCCCCNC(=O)[C@@H](N)CS)C(=O)N[C@@H](CCCNC(=N)N)C(=O)O [C[PE6]QRF[S—O-Octanoyl]R, C—(—HN—(CH2)6—CO-)-QRF—S(O-octanoyl)-R]	–	–	–	–	increase inhibitory potency compared to Opiorphin native peptide, Substance P test [1]: at least 5 fold
N=C(N)NCCC[C@H](NC(=O)[C@H](CO)NC(=O)[C@H](Cc1ccccc1)NC(=O)[C@H](CCCNC(=N)N)NC(=O)[C@H](CCC(N)=O)NC(=O)CCCCCCCCCCCCNC(=O)[C@@H](N)Cc1ccc(O)cc1)C(=O)O [Y(PE12)QRFSR-COOH, Y—(—HN—(CH2)12—CO-)-QRFSR]	potent dual inhibitors	–	–	–	inhibitory preference for human NEP endopeptidase activity (in words) [2]: inhibitory preference for human NEP endopeptidase activity; inhibitory potency towards human AP-N (in words) (recombinant human AP-N): potent dual inhibitors
N=C(N)NCCC[C@H](NC(=O)[C@H](CO)NC(=O)[C@H](Cc1ccccc1)NC(=O)[C@H](CCCNC(=N)N)NC(=O)[C@H](CCC(N)=O)NC(=O)[C@@H](N)CSSC[C@H](N)C(=O)N[C@@H](CCC(N)=O)C(=O)N[C@@H](CCCNC(=N)N)C(=O)N[C@@H](Cc1ccccc1)C(=O)N[C@@H](CO)C(=O)N[C@@H](CCCNC(=N)N)C(=O)O)C(=O)O [[CQRFSR]2]	–	–	–	–	increase inhibitory potency towards hNEP-Endo and CarboxyDi-peptidase activities compared to CQRFSR monomer peptide (human NEP; increase vs CQRFSR monomer): at least 2 fold
QHNPR [NH2-QHNPR-COOH]	weak inhibitory potency	equivalent inhibitory potency	inhibitory preference for human AP-N	weak inhibitory potency	–
QKFSR	–	–	–	light reduction in inhibitory potency	–
QRFPR	weak inhibitory potency	equivalent inhibitory potency	inhibitory preference for human AP-N	weak inhibitory potency	–
QRFSK	–	–	–	equivalent inhibitory potency	–
QRGPR [NH2-QRGPR-COOH]	weak inhibitory potency	equivalent inhibitory potency	inhibitory preference for human AP-N	weak inhibitory potency	–
dR-dS-dF-dR-dQ ([dR][dS][dF][dR][dQ]) [NH2-dRdSdFdRdQ-COOH]	did not display significant inhibitory activity	–	preference for AP-N activity	–	inhibitory potency towards human AP-N (in words) (recombinant human AP-N): did not display significant inhibitory activity
